Data published in article PMC4442619.
Blank lines part the entries; values can stand above or below the molecule they belong to.

Assays:
[1] = biological target: C-terminal region of RING1B (C-RING1B), residues 222–336, with C-terminal hexahistidine tag (human) (UniProt Q99496); assay: native gel or EMSA
[2] = biological target: C-terminal region of RING1B (C-RING1B), residues 222–336, with C-terminal hexahistidine tag (human) (UniProt Q99496); assay: SPR
[3] = biological target: RING1B C-terminal domain (C-RING1B) (Homo sapiens) (UniProt Q99496); details: cited from earlier work
[4] = biological target: cbx7 cbox domain with C-terminal hexahistidine tag (human); assay: AUC

- stoichiometry N [1]: 1
Molecule: cbx6 cbox domain (domain or fragment)

- Kd [2]: 180 nM
Molecule: MBP–cbx6 cbox domain fusion protein (from UniProt O95503 1-412) (domain or fragment)

- Kd [2]: 38 nM
Molecule: MBP–Drosophila Pc cbox domain fusion protein (from UniProt P26017 1-390) (domain or fragment)

Molecule: RING1B C-terminal domain (C-RING1B) (from UniProt Q99496)
- Kd [3]: 200 µM

- Kd [2]: 180 nM
Molecule: MBP–cbx8 cbox domain fusion protein (from UniProt Q9HC52 1-389) (domain or fragment)

- Kd [2]: 9.2 nM
Molecule: MBP–cbx7 cbox domain fusion protein (from UniProt O95931 1-251) (domain or fragment)

- stoichiometry N [4]: 1
B1: C-RING1B (residues 222–336) with C-terminal SRD sequence, coexpressed with the cbx7 cbox domain (domain or fragment)
chain: MEKTRGASEIELVFRPHPTLMEKDDSAQTRYIKTSGNATVDHLSKYLAVRLALEELRSKGESNQMNLDTASEKQYTIYIATASGQFTVLNGSFSLELVSEKYWKVNKPMELYYAPTKEHKSRD
